# Source: patent EP2848696A1, “Caspase-1 imaging probes” (Sanofi-Aventis Deutschland GmbH, priority 2013, dated 2015)
# How the values were obtained:
# Test in all cases: Kinetic characterization (Km and kcat/Km of probe hydrolysis)
# Type in all cases: biochemical
# Conditions in all cases: other: caspase-1 added to increasing probe concentrations; initial velocities; nonlinear regression
# [1] = substrate: CCN(CC)c1ccc2cc(C(=O)NNC(=O)[C@H](CC(=O)O)NC(=O)[C@@H]3CCCN4C(=O)CC[C@H](NC(=O)c5cc6ccc(OC)cc6oc5=O)C(=O)N34)c(=O)oc2c1
# Description: (§1) Km and kcat/Km values were determined using standard methods (Kindermann et al., 2010; Rozman Pungercar et al., 2003). Caspase-1 was added to increasing concentrations of the probe and initial velocities of probe hydrolysis were calculated from the slopes of the lines of the fluorescence increase. Km and kcat (Vmax) values were then determined by nonlinear regression analysis using the Prism program.
# [2] = substrate: CCN(CC)c1ccc2cc(C(=O)NNC(=O)[C@H](CC(=O)O)NC(=O)[C@@H]3CCCN4C(=O)CC[C@H](NC(=O)c5cc6cc(Br)c(O)cc6oc5=O)C(=O)N34)c(=O)oc2c1
# Description: as §1
# [3] = substrate: CCN(CC)c1ccc2cc(C(=O)NNC(=O)[C@H](CC(=O)O)NC(=O)[C@@H]3CCCN4C(=O)CC[C@H](NC(=O)c5cc6ccc(O)cc6oc5=O)C(=O)N34)c(=O)oc2c1
# Description: as §1
protein,measurement,setting,value
Caspase-1 (Homo sapiens) (protein) chain 1: NPAMPTSSGSEGNVKLCSLEEAQRIWKQKSAEIYPIMDKSSRTRLALIICNEEFDSIPRRTGAEVDITGMTMLLQNLGYSVDVKKNLTASDMTTELEAFAHRPEHKTSDSTFLVFMSHGIREGICGKKHSEQVPDILQLNAIFNMLNTKNCPSLKDKPKVIIIQACRGDSPGVVWFKD chain 2: AIKKAHIEKDFIAFCSSTPDNVSWRHPTMGSVFIGRLIEHMQEYACSCDVEEIFRKVRFSFEQPDGRAQMPTTERVTLTRCFYLFPGH,Km,[1],4.2 µM µM
same,Km,[2],5.9 µM µM
same,Km,[3],6.5 µM µM
